Tested on: MS2 coat protein
Test: apparent KD of MS2 coat protein; designed switch direction (-1 OFF switch, 1 ON switch): -1; higher = weaker reporter binding
Procedure, shortened: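 Designed RNA switches with common flanks were transcribed on Illumina chips by stalled E. coli RNA polymerase and titrated with SNAP-549-labelled MS2 coat protein, from 0.7 or 1.5 nM doubling to 3 µM, in Tris-HCl pH 7.5 buffer with KCl, MgCl2, BSA, DTT, tRNA and Tween-20. Steps lasted 0.8–1.5 h (lowest) to 10–20 min (highest). Titrations ran without input, with 200 uM small-molecule ligand, or with an oligonucleotide input. Normalised cluster fluorescence was curve-fitted, and apparent KD is the per-design median over clusters.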

[1] = Eterna round: R95, input ligand: FMN 200 uM
[2] = Eterna round: R95, input ligand: microRNA oligo, concentration not stated
[3] = Eterna round: R95, input ligand: none
[4] = input ligand: microRNA oligo, concentration not stated

Row | Sequence | apparent KD of MS2 coat protein [1] | apparent KD of MS2 coat protein [2] | apparent KD of MS2 coat protein [3] | apparent KD of MS2 coat protein (input ligand: FMN 200 uM) | apparent KD of MS2 coat protein (input ligand: none) | apparent KD of MS2 coat protein [4]
1 | UAAUACAAGUAGAGAUUCUACAUGAGGAUCACCCAUGUGCUCGUCUUAUAAAGUACUAUCACGAAAGUGAUAGUACA [Mat - Sensor v3 - turn-off var 1 - Eli Mod - D97] (puzzle: Sensor v3, turn-off variant 1) | 23 nM | 322 nM | 19.7 nM | – | – | –
2 | CCAGGCGUCUUUGCUCGUCUUAUUUGGAGAGGACUGAUAACAUGAGGAUCACCCAUGUGUGUGGGAGCGUUGCAGUG [JR_SV3TOV2_Sub020] (puzzle: Sensor v3, turn-off variant 2) | 86.3 nM | 161 nM | 116 nM | – | – | –
3 | GUUUCACAUGAGGAUCACCCAUGUGAGGAUAUGUUAUUAAUGGCGAUAGUUAUUGGUGGCAGAAGGCGCGUGAU [JR_Exc1_Sub010] (Eterna round: R97, puzzle: Exclusion 1) | – | – | – | 115 nM | 50.2 nM | –
4 | AAGUCAGCAGGAUAUGCGAUGUUGGGCUAGGUAGCGUGACCACAUGAGGAUCACCCAUGUAGAAGGGCUGGCUA [EX2 Malc#36] (Eterna round: R96, puzzle: Exclusion 2) | – | – | – | 45.6 nM | 29.7 nM | 21.9 nM
5 | GUAGCUCUCGAGGAUAUGGAUAGAAAAGUUAGUCCAGAAGGCGAGACAUGAGGAUCACCCAUGUUGGACUCUGC [Eternabot (L2) Solution 77] (Eterna round: R97, puzzle: Exclusion 6) | – | – | – | 118 nM | 60.4 nM | –
6 | GAAGUAUGAGUUAGGAUAUGAUGAUUUUUAUUAAAUCAGAAGGAACUUGAGGAUCACCCAAGUAAAGAAUUGGU [JR_BMEx4_Sub070] (Eterna round: R97, puzzle: Brourd's mod of Exclusion 4) | – | – | – | 16.1 nM | 15.6 nM | –
7 | AGUUGUUGUUUCCGUUCUUACAUGAGGAUCACCCAUGUUUCUUGUCGUGCUCGCGUUGCUCGUCUGGCUACCUGUUG [salish99_TOv1_r3_068] (puzzle: Sensor v3, turn-off variant 1) | 33.9 nM | 34 nM | 43.8 nM | – | – | –
8 | AUCAGCUCGUCAGGAUAUACAUGCGUGCUUCGGCACGUAUGAUAGAUCACAUGAGGAUCACCCAUGUAGAAGGGACGAGCUGAU [ENG2/4-B3] (Eterna round: R96, puzzle: Exclusion NG 2) | – | – | – | 15.3 nM | 12.7 nM | 9.19 nM
9 | AUAAGGUCAGGAUAUGCUUGGCGGAUUCUGGUGUCCAAAUGACAUGAGGAUCACCCAUGUAGAAGGGACAUCAG [Leonlexe] (Eterna round: R97, puzzle: Exclusion 2) | – | – | – | 12.4 nM | 14.1 nM | –
10 | AGAGAAUAGUCAGGAUAUCUUAAUAGAAAGAAUAGAGAAGGGACACAUGAGGAUCACCCAUGUGAAGUCUUGAGACUACAUGGU [Prohibition 30 - Jieux - Exclusion NG 1] (Eterna round: R96, puzzle: Exclusion NG 1) | – | – | – | 108 nM | 35.3 nM | 27.4 nM
11 | GGUUAUUGCAAGGAUAUGCUUUUUUUUUAUAUUGCAGAAGGUGCAACAUGAGGAUCACCCAUGUUGGAGGGUUU [JR_E6_Sub022] (puzzle: Exclusion 6) | – | 26 nM | – | – | – | –
12 | CUAGUCCGAGGAUAUAUUAUGUGAUACAUGAGGAUCACCCAUGUUAUAUGAUGGAUGUUAAUAGAAGGCGGACUAG [Mat - Exclusion 5 - JL mod - D72] (puzzle: Exclusion 5) | 246 nM | 118 nM | 110 nM | – | – | –
13 | CCAGGCAAUUCCACUUGUAACAUGAGGAUCACCCAUGUGACCUGGUAUCAAGGCAGCUCGUCAUCCCACCAUAUUCA [Eternabot (L1) Solution 23] (Eterna round: R97, puzzle: Sensor, turn-off variant 1) | – | – | – | 18.8 nM | 18.4 nM | –
14 | CCUCUACAUGAGGAUCACCCAUGUGAGGAUAUCUCGGAAAAGCCACUUAAGGUACUCCAGAGAAGGCACGUGUA [Rileed] (puzzle: Exclusion 1) | – | 15.2 nM | – | – | – | –
15 | AGCUGUGGCCGAGGAUAUCCACAUGAGGAUCACCCAUGUGAAUACCCAAUUAAGGGAUAACCGUGGGAGAAGGCGGUCUCAGCA [Eli eng2 - 048] (Eterna round: R96, puzzle: Exclusion NG 2) | – | – | – | 80.9 nM | 167 nM | 112 nM
16 | CGCAGACGAGGAUAUAGAUGGAAUGACAUGAGGAUCACCCAUGUGAUCGAUCUAUUGGGUUUAGAAGGUGUCUGCG [JR_Ex5_Sub046] (Eterna round: R97, puzzle: Exclusion 5) | – | – | – | 14.4 nM | 15.2 nM | –
17 | GUUGUUCGGUAGGAUAUGAAACAGCAGAGAUUGUCAGAAGGGCCGACAUGAGGAUCACCCAUGUGUGCGAAAGC [Eternabot (L1) Solution 26] (Eterna round: R97, puzzle: Exclusion 6) | – | – | – | 35.1 nM | 50 nM | –

Row | Sequence | apparent KD of MS2 coat protein [1] | apparent KD of MS2 coat protein [2] | apparent KD of MS2 coat protein [3] | apparent KD of MS2 coat protein (input ligand: FMN 200 uM) | apparent KD of MS2 coat protein (input ligand: none) | apparent KD of MS2 coat protein [4]
18 | CCUCCACAUGAGGAUCACCCAUGUCAGGAUAUCGUGUGUGUUUUUUCGGUCUUUCGUGCGAGAAGGGACGUCUG (puzzle: Exclusion 1) | – | 45.6 nM | – | – | – | –
19 | UCUGGUCGAGGAUAUACAUGAGGAUCACCCAUGUGGUCACGUGACUUCGGUCACGAAUGUAGAAGGCGACCAGA [E3/3-A6] (Eterna round: R97, puzzle: Exclusion 3) | – | – | – | 26.7 nM | 51 nM | –
20 | CGUUGUCAAGGAUAUAUAGAGCUAUACAUGAGGAUCACCCAUGUGGUUAGUGUUGUGUGAGUAGAAGGUGGAAUGU [Eternabot (L2) Solution 99] (Eterna round: R97, puzzle: Exclusion 5) | – | – | – | 84.3 nM | 224 nM | –
21 | GGUGAGCGAGGAUAUACAUGAGGAUCACCCAUGUGAGAGAAUAAAGUGAGGAAGAAAAGUAGAAGGCGCGAACG [Mat - Exclusion 3 - Mod of Salish D47] (puzzle: Exclusion 3) | 91.4 nM | 37.8 nM | 11.9 nM | – | – | –
22 | UAAAAGCGAGGAUAUACAUGAGGAUCACCCAUGUGAGGCGAAAAGCCUCGGGCCAUCAGUAGAAGGUGCAAAAC [Arcecela] (puzzle: Exclusion 3) | 79 nM | 68.9 nM | 112 nM | – | – | –
23 | CAUGUGUAAGGAUAUGACAAUGGUAUCUUCGGAUACCAUUGUCAGAAGGUACAUGAGGAUCACCCAUGUGGAUC [Ex4-3: 20] (puzzle: Exclusion 4) | – | 222 nM | – | – | – | –
24 | CCAUAUAACUGAGGAUAUACGCACCACUAACUAGUAGAAGGCAGACAUGAGGAUCACCCAUGUGAUUUCUCAAUAUUAUACAUC [Prohibition 74 - Jieux - Exclusion NG 1] (Eterna round: R96, puzzle: Exclusion NG 1) | – | – | – | 927 nM | 775 nM | 357 nM
25 | ACAUGUUGUGCAGGAUAUGGGACACAUGAGGAUCACCCAUGUGGCUACAUGUCAUACCAAGCGUCUCAGAAGGGUAUUAACAUG [Ex NG2 #37] (Eterna round: R96, puzzle: Exclusion NG 2) | – | – | – | 31.9 nM | 23.2 nM | 24.8 nM
26 | CCGGUAAAGGAGGAUAUAGGAGUCGAUAGACACCUAGAAGGCCUGACAUGAGGAUCACCCAUGUGUCCUACCGG [Fiskers Ex 6 - 93] (puzzle: Exclusion 6) | 23.7 nM | 14.1 nM | 13.5 nM | – | – | –
27 | AAAUAGUAGCAGGAUAUGAGUAUUAUUGGAAGCUCAGAAGGGCUGACAUGAGGAUCACCCAUGUGUUAUGUCGG [Eternabot (L1) Solution 54] (Eterna round: R97, puzzle: Exclusion 6) | – | – | – | 49.1 nM | 177 nM | –
28 | UCGUUUCGUGUAGGAUAUUGGCCUUCUCUGGGUCGAGAAGGACAUGAGGAUCACCCAUGUAUGUUAUUAUCACGCGUGGCGCAU [Design 83] (Eterna round: R96, puzzle: Exclusion NG 1) | – | – | – | 35.3 nM | 28.2 nM | 15.8 nM
29 | GAGCUGUGAGGAUAUACAUGAGGAUCACCCAUGUAAUGGUAGUCGGGAUUAAUUUGGUGUAGAAGGCGCUUAUU [JR_Ex3_Sub020] (Eterna round: R97, puzzle: Exclusion 3) | – | – | – | 41 nM | 46 nM | –
30 | UUUAAAAUUUCAAUCUUCGCUGGCAAACUUGCGCCAGCUACAUGAGGAUCACCCAUGUUUUUUGCCCGUCUUAUUCU [Inisti] (puzzle: Sensor v3, turn-off variant 2) | 24.3 nM | 170 nM | 26.7 nM | – | – | –
31 | AGAUCACAUGAGGAUCACCCAUGUCAGGAUAUCGUCACUGGAGCUUCGGCUCCAGUGACGAGAAGGGACAAUUA [E1/1-A3] (Eterna round: R97, puzzle: Exclusion 1) | – | – | – | 304 nM | 161 nM | –
32 | CCCACCAGAGGAUAUGCGCAUAGAUCAGACUUUGUUUCUGAACAUGAGGAUCACCCAUGUAGAAGGCUGUAACC [Ex2 #87] (Eterna round: R97, puzzle: Exclusion 2) | – | – | – | 25.2 nM | 24.3 nM | –
33 | GGUUUACAAGGAUAUACAAAGGUCUUGUGAUCUGUGCGAGGACAUGAGGAUCACCCAUGUAGAAGGUGUCUGCU [Eternabot (L2) Solution 77] (Eterna round: R97, puzzle: Exclusion 2) | – | – | – | 193 nM | 114 nM | –
34 | ACGAGGUCAGGAUAUACAGAGAGAAGGAGUUGGUUGAGGUAACAUGAGGAUCACCCAUGUAGAAGGGACUGGGA [JR_Exclu2_Sub081] (puzzle: Exclusion 2) | 48 nM | 31.2 nM | 34.9 nM | – | – | –

Reference: the supplement of paper PMC9170038
